Earlier results on one substance are cited in PMC4732575.

One data set deals with LDLR (Homo sapiens) (UniProt P01130).
A further data set addresses CD36 (Homo sapiens) (UniProt P16671).

Sequence of PCSK9 (Q8NBP7 153-692): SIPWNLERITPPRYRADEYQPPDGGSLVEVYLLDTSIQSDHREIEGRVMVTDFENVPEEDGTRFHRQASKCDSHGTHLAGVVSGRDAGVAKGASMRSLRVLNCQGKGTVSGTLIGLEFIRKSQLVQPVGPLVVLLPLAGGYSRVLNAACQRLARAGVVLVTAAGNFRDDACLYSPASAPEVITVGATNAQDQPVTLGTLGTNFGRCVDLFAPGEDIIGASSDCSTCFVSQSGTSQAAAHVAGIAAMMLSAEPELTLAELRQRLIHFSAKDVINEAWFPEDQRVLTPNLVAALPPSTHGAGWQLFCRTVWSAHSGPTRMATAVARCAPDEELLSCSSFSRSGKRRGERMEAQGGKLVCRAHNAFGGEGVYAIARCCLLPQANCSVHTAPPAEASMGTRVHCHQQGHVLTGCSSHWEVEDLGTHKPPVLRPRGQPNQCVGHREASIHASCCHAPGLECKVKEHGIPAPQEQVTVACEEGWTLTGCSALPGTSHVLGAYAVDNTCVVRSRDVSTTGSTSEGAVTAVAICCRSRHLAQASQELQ
Sequence of LDLR (Homo sapiens) (P01130 22-788): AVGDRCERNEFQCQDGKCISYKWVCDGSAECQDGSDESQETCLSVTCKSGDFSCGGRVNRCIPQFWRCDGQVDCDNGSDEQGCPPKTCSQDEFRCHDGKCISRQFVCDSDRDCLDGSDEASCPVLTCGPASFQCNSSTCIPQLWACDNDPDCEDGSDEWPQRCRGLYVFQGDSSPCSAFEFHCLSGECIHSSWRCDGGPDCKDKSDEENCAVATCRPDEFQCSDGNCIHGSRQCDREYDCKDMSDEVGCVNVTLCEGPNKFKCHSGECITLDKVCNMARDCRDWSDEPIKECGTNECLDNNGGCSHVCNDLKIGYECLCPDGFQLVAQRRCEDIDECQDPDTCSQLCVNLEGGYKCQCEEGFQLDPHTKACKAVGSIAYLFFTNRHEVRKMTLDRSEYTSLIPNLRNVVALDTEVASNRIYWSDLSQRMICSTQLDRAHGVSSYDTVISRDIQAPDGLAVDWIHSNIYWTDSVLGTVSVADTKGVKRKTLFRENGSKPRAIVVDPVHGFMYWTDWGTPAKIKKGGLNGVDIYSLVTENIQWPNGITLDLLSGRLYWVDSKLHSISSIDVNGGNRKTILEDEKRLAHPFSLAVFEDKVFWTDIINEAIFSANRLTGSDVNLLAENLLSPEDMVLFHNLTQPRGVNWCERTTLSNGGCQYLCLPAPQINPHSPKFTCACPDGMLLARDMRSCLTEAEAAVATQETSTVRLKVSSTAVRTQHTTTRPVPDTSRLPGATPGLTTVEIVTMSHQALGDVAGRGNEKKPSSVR
Sequence of CD36 (Homo sapiens) (P16671 2-472): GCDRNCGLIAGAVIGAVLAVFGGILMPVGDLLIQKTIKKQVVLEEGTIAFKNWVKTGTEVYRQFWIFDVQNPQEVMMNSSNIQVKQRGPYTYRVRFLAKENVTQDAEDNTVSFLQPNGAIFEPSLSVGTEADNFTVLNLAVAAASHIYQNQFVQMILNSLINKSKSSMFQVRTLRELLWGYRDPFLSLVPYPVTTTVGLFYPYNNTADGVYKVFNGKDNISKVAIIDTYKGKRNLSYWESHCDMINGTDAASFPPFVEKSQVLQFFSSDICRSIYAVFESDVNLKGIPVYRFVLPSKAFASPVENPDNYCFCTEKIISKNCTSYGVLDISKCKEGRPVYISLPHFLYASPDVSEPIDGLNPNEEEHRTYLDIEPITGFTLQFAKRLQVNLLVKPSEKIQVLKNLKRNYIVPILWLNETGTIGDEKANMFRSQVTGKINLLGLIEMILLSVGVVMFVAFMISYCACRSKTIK

With PCSK9 (from UniProt Q8NBP7), the Kd with LDLR (Homo sapiens) and in the data set with CD36 (Homo sapiens) was 1000 nM in each case.
